Laboratory results reported in US10519238 (dated 2019).

Key:
[1] = target: recombinant human galectin-1 (R&D Systems) (UniProt P09382 2-135); test: SPR (BIAcore)
[2] = target: T1, recombinant murine galectin-1 (R&D Systems) (UniProt P16045 2-135); test: SPR (BIAcore)
T1 chain: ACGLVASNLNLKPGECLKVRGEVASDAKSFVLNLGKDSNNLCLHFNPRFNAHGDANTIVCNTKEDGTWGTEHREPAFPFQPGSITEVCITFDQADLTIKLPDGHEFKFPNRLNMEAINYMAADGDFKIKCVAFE

recombinant human galectin-1 (R&D Systems), sequence (P09382 2-135): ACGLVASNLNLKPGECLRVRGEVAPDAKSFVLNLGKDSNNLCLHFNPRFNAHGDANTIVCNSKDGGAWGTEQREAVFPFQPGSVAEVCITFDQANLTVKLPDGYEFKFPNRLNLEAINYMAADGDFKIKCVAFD

B1: anti-Gal1 monoclonal antibody 8A12.H9.H10 (antibody, V domains shown)
VH: QAYLQQSGAELVRPGASVRMSCKASGYTFTRYNMHWVKQTPRQGLEWIGRIYPGNGDTSYNQKFKGKATLTVDKSSSTAYMQLSSLTSEDSAVYFCTVWDYWGQGTTLTVSS
VL: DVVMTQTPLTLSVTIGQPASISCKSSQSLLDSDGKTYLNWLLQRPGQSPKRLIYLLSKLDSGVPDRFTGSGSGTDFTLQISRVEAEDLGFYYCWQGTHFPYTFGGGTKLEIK
- Kd [1]: 71 nM
- Kd [2]: 26.6 nM
